Residue numbers refer to the chain shown, from its start.
T1: hiR2-FL-D569E-T7 (human, UniProt Q6PJF5 1-856)
T1 sequence: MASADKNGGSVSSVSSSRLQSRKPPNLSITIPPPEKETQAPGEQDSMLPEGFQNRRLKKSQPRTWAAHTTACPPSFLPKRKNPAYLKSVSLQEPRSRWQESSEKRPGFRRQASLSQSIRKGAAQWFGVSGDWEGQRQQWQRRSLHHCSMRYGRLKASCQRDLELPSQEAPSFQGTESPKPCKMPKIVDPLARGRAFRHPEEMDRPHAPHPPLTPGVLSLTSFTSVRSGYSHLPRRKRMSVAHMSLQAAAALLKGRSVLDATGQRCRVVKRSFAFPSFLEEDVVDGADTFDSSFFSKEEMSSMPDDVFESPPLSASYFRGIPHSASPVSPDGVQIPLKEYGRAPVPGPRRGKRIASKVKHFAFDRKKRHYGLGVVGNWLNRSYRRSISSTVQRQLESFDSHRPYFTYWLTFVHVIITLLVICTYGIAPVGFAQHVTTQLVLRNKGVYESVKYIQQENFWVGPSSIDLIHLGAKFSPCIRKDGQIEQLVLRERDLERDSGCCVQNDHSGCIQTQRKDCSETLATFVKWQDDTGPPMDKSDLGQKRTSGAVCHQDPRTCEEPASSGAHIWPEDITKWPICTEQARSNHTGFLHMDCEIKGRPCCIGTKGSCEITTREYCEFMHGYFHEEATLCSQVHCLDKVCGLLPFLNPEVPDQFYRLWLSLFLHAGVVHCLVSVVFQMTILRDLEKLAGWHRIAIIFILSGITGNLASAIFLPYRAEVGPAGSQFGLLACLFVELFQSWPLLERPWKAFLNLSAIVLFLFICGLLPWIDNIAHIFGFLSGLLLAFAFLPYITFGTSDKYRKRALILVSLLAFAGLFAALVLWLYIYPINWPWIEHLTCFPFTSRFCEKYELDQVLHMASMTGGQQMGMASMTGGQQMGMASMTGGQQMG

B1: antibody 48 (antibody, V domains shown)
VH: QVQLQQSGTELVRPGTSVKVSCKASGYAFTNYLIEWVKQRPGQGLEWIGVINPGSGFTKYNEKFKGKATLTADKSSSTVYMHLSSLTSEDSAVYFCARGLYRAMDYWGQGTSVTVSS
VL: DIQMTQSPASQSASLGESVTITCLASQTIATWLAWYQQKPGKSPQLLIYGATTLADGVPSRFSGGGSGTKFSFKISSLQAEDFVSYYCQQLYSTPYTFGGGTKLEIK
notes: mouse IgG, kappa light chain; also called clone #48; purified antibody 48
B2: antibody 50 (antibody, V domains shown)
VH: B1 VH with T9A, T16A, T30S, V79A, H82Q
VL: B1 VL with A30G, G50A, T52A, T53S, S85N, L91I
notes: mouse IgG, kappa light chain; also called clone #50; purified antibody 50

Target: T1, hiR2-FL-D569E-T7
Test: FACS, MEF-DKO cells, 3 µg/ml
Procedure, shortened: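 Binding read by flow cytometry after a PE goat anti-mouse IgG F(ab′)2 secondary (1:100, on ice, 1 h, dark). Before that, immortalized MEF-DKO lines carrying single-mutant hiR2-FL-T7 constructs were incubated 1 h on ice with 3 μg/ml antibody or FACS buffer alone.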

| Binder | loss of binding vs wild type |
| --- | --- |
| B1 | ≥ 30% |
| B2 | ≥ 30% |

Reference: patent US20240287172A1 (SCIRHOM, published 2024)
